One data set deals with T1, NF90dsRBDs-deltaNLS (mouse, UniProt Q9Z1X4 393-592).
T1 sequence: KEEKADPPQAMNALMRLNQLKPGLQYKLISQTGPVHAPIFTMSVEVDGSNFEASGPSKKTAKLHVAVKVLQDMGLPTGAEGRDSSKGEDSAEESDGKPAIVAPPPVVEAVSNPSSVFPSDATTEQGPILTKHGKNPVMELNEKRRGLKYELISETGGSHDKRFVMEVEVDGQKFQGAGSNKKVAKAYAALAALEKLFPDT
Kind of data set: ITC; apparent Kd; unit as printed (mM), possibly uM misprint; 1:2 RNA:protein; EMSA: 20 mM HEPES pH 7.5, 150 mM K acetate, on ice, 1 uM RNA (competition 0.5 uM complex); FA: same buffer, 23.5 C, 250 nM RNA; ITC: 20 mM HEPES pH 7.5, 50 mM NaCl, 25 C. Conditions: protein: recombinant; tags: GST removed by TEV; chain copies: 2; blunt. On the technique in general: In ITC the heat of successive injections is recorded.

For another data set, the target named is NF90long;NF45 (mouse;mouse?, UniProt Q9Z1X4;Q9CXY6 1-590;1-390, |). As to the kind of experiment: competition; competes DY781 21mer efficiently; EMSA: 20 mM HEPES pH 7.5, 150 mM K acetate, on ice, 1 uM RNA (competition 0.5 uM complex); FA: same buffer, 23.5 C, 250 nM RNA; ITC: 20 mM HEPES pH 7.5, 50 mM NaCl, 25 C. The note with it: protein: recombinant;recombinant; tags: 6xHis removed by TEV;6xHis removed by TEV; copies: 1;1; hairpin with mismatches. Background: A gel shift assay detects complexes by their altered migration in electrophoresis.

Data set [1] has as its target NF90-deltaC380;NF45-deltaN28 (with NF90-deltaC380) (mouse?;mouse?, UniProt Q9Z1X4;Q9CXY6 1-380;28-390, |). Kind of data set: EMSA; EMSA: 20 mM HEPES pH 7.5, 150 mM K acetate, on ice, 1 uM RNA (competition 0.5 uM complex); FA: same buffer, 23.5 C, 250 nM RNA; ITC: 20 mM HEPES pH 7.5, 50 mM NaCl, 25 C. The note with it: protein: recombinant;recombinant; tags: ;; copies: 1;1; label: 5' DY781 on strand 1; blunt.

In a further data set the target is T2, NF90dsRBDs (mouse, UniProt Q9Z1X4 380-592).
T2 sequence: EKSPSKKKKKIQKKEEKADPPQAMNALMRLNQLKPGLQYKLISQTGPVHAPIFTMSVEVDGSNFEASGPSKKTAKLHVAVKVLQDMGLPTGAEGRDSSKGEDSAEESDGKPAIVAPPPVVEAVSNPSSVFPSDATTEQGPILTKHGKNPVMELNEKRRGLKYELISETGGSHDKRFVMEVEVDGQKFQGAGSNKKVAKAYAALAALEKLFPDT
As to the kind of experiment: fluorescence anisotropy; EMSA: 20 mM HEPES pH 7.5, 150 mM K acetate, on ice, 1 uM RNA (competition 0.5 uM complex); FA: same buffer, 23.5 C, 250 nM RNA; ITC: 20 mM HEPES pH 7.5, 50 mM NaCl, 25 C. The note with it: protein: recombinant; tags: GST removed by TEV; label: 5' Cy3 on strand 1; blunt. For orientation: Polarisation of emitted light reports the rotation of a fluorescent probe.

The target of a further data set is NF90long;NF45-deltaN28 (mouse;mouse, UniProt Q9Z1X4;Q9CXY6 1-590;28-390, |). The description is as above. The note with it: protein: recombinant;recombinant; tags: 6xHis removed by TEV;6xHis removed by TEV; copies: 1;1; label: 5' Cy3 on strand 1; blunt.

Here are results for five molecules from paper PMC4770229, “Nuclear factor 90 uses an ADAR2-like binding mode to recognize specific bases in dsRNA”.

B1: 18mer dsRNA, unmodified (dsRNA)
RNA 1: UCACUUUCAUAAUGCUGG
RNA 2: CCAGCAUUAUGAAAGUGA
Take B1: in the data set with NF90dsRBDs-deltaNLS, the Kd was roughly 2400 µM.

B2: GluA2(R/G) hairpin RNA (structured_RNA)
RNA: CAUUAAGGUGGGUGGAAUAGUAUAACAAUAUGCUAAAUGUUGUUAUAGUAUCCCACCUACCCUGAUG
For the molecule B2, in the data set with NF90long;NF45, the binding result was “binds”.

B3: 18mer dsRNA, 2'F strand (dsRNA)
RNA 1: UCACUUUCAUAAUGCUGG
RNA 2: CCAGCAUUAUGAAAGUGA
modifications: 2'-F ribose uniformly on strand 1
For B3, the Kd in the data set with NF90dsRBDs-deltaNLS is roughly 2400 µM.

B4: 21mer dsRNA, DY781 (dsRNA)
RNA 1: UCACUUUCAUAAUGCUGGAUA
RNA 2: UAUCCAGCAUUAUGAAAGUGA
With B4, in data set [1], the binding result is “no binding”.

B5: 21mer dsRNA, Cy3 (dsRNA)
RNA 1: UCACUUUCAUAAUGCUGGAUA
RNA 2: UAUCCAGCAUUAUGAAAGUGA
For the molecule B5, the figures for the Kd with NF90dsRBDs and in the data set with NF90long;NF45-deltaN28 were 0.433 ± 0.055 µM and 0.046 ± 0.016 µM, respectively.
